Among the data in the supplement of paper PMC10126150 are switch fluorescence ratio values, retold here.

± gives the standard deviation of the averaged measurements.
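Further: ATP exposure 15 min at 22 °C before imaging.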

For this data set, the system named is ATP. Nature of the data set: switch fluorescence ratio, 500 uM ATP over buffer (Cy3 cluster intensity, sum of 5 cycles each) (fold (ratio)); higher = stronger signal-on switching upon ATP binding; sequences stand for … in TCGTCGGCAGCGTCAGATGTGTATAAGAGACAGTTTTTTTTTTTTTTTTTTTTTTTTT…TC. The settings on record: aptamer strand: ATP DNA aptamer (quencher-CACCTGGGGGAGTATTGCGGAGGAAGG + anchor), 100 nM annealed; ATP concentration: 500 uM. The gist of the method: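 Imaging in selection buffer was followed by imaging after 15 min with 500 uM ATP at 22 °C, for Cy3-labelled switching-strand clusters annealed to 100 nM quencher-labelled ATP aptamer on a modified Illumina MiSeq flow-cell. Five of these buffer/ATP cycles ran, separated by NaOH stripping and re-annealing. The fluorescence ratio per cluster is summed target-cycle over summed buffer-cycle Cy3 intensity, averaged per switch-domain sequence; clusters outside 100-1000 RFU were removed.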
For CTATGCAATT, the switch fluorescence ratio turned out to be 3.33 ± 0.29.
As to ATGCAGGAGT, the switch fluorescence ratio stood at 0.98647 ± 0.00087.
Turning to GGGTGTCGGT, the switch fluorescence ratio amounted to 0.984 ± 0.024.
As for GATTCCTATC, the switch fluorescence ratio is 0.996 ± 0.039.
As for TCTGTGGGGA, the figure is 1.04 ± 0.045; as for CCATAGGGGG, 0.989 ± 0.025.
TTGACACTGG: the switch fluorescence ratio was 1.04 ± 0.02.
As for GGTTTCAATA, the switch fluorescence ratio turned out to be 1.0088 ± 0.00023.
For the sequence AAATCAGATA, the switch fluorescence ratio amounted to 0.987 ± 0.033.
Regarding TTTTTTCATG, the switch fluorescence ratio worked out at 0.988 ± 0.033.
For the sequence CTCAGTAGTT, the switch fluorescence ratio was 1.018 ± 0.0053.
Consider ATCCAAGTAA, for which the switch fluorescence ratio was determined as 1.04 ± 0.021.
To TGTTGTGTGT belongs 0.985 ± 0.028.
For TTGGCTTGGG, the switch fluorescence ratio worked out at 1.01 ± 0.043.
For GTTTGCTGTT, the switch fluorescence ratio is 0.9931 ± 0.0089.
For AGCCTTTGTC, the switch fluorescence ratio is 0.982 ± 0.041.
With ATTGGGTAT, the switch fluorescence ratio was determined as 0.988 ± 0.021.
As to AACTGAGAAG, the switch fluorescence ratio came to 0.988 ± 0.015.
In the case of GTTAATATAG, the switch fluorescence ratio was determined as 0.992 ± 0.035.
Consider AAGTTGTTTC, for which the switch fluorescence ratio was determined as 0.988 ± 0.013.
To CGGGATGTTA belongs 0.996 ± 0.016; to TTGTATGTAG, 1.02 ± 0.021.
TCAGTCAGTT: the switch fluorescence ratio came out at 0.991 ± 0.048.
For the sequence ATGGGTTTCT, the switch fluorescence ratio worked out at 0.989 ± 0.026.
To GGGATTCAG belongs 1.0226 ± 0.0002.
As for GTCGGGGGGG, the switch fluorescence ratio was 0.999 ± 0.031.
For the sequence GATATTTGTG, the switch fluorescence ratio stood at 0.995 ± 0.016.
To ACTAGGTCCG belongs 1.005 ± 0.0016.
For CAGCATAGAT, the switch fluorescence ratio worked out at 1.08 ± 0.023.
As to CAATCGACCT, the switch fluorescence ratio is 1.27 ± 0.046.
Turning to TGTTTAAACG, the switch fluorescence ratio turned out to be 1.025 ± 0.005.
To TTTTTGGGTT belongs 1.02 ± 0.048; to GGAAGCCACG, 1.06 ± 0.022.
Regarding GTCCAAATGG, the switch fluorescence ratio came to 0.999 ± 0.022.
As to TTCCTTGGGT, the switch fluorescence ratio came out at 1.01 ± 0.017.
CAGTGCAGCG: the switch fluorescence ratio is 1.06 ± 0.057.
Consider TGGCACAGAG, for which the switch fluorescence ratio was determined as 1 ± 0.022.
Turning to ACCAAATTCA, the switch fluorescence ratio is 1.04 ± 0.0087.
As for CTATTGGTTT, the figure is 0.9746 ± 0.0021; as for AGTGGAAAC, 1.0032 ± 0.00099; as for AGACGCGTAG, 0.999 ± 0.046.
To GGACTCTGGG belongs 0.966 ± 0.058.
With CATTGTTTTG, the switch fluorescence ratio was 0.9676 ± 0.0041.
For TAATAGGGTT, the switch fluorescence ratio was 1.01 ± 0.027.
TTTCCGGGGA: the switch fluorescence ratio was 1.18 ± 0.29.
In the case of AATTGGATCT, the switch fluorescence ratio is 1.01 ± 0.027.
As to CAGGGGTATA, the switch fluorescence ratio is 1.02 ± 0.024.
With TATTTGGTTG, the switch fluorescence ratio stood at 0.995 ± 0.018.
Take CGAGGGTTTG: the switch fluorescence ratio stood at 0.9968 ± 0.0032.
GATTCGATCT: the switch fluorescence ratio was 0.993 ± 0.024.
On to ATGTCGTGGC, for which the switch fluorescence ratio is 1 ± 0.048.
Turning to TGGGGAAGCG, the switch fluorescence ratio was 0.988 ± 0.011.
To GGTTTTTCTG belongs 0.992 ± 0.061.
Regarding TCTTTATACT, the switch fluorescence ratio was determined as 1.05 ± 0.034.
For AAAAATGGGG, the switch fluorescence ratio was 0.972 ± 0.0098.
As for GCTAATTTTT, the switch fluorescence ratio came to 0.996 ± 0.018.
To GATGGTAACT belongs 0.984 ± 0.017; to GGTGTTAAAC, 1.01 ± 0.035; to CATCGCAAAG, 4.33 ± 0.46.
GTATGGTAGG: the switch fluorescence ratio came out at 1.03 ± 0.05.
As for TGGGAAAAAT, the figure is 0.994 ± 0.04; as for AACGTGTATT, 1.1 ± 0.12; as for CATATTTTAG, 0.989 ± 0.032.
As for ATATTGAGCT, the figure is 0.976 ± 0.022; as for CGTCCACGGA, 0.9936 ± 0.0096.
Take TAAACATCAC: the switch fluorescence ratio came to 1.164 ± 0.011.
In the case of TATTGTTAAA, the switch fluorescence ratio was 0.987 ± 0.029.
As for GGGAAAGTCG, the figure is 1 ± 0.036; as for CGTATAATAG, 1.02 ± 0.04.
As to CGCGGGTATG, the switch fluorescence ratio came out at 1.05 ± 0.026.
On to ATAGATGATC, for which the switch fluorescence ratio was determined as 1 ± 0.031.
As to GGCTGCTTTC, the switch fluorescence ratio was determined as 1.03 ± 0.055.
Take GGAGAAGGGT: the switch fluorescence ratio turned out to be 0.9967 ± 0.0047.
Take TGGGTTCGGT: the switch fluorescence ratio is 0.995 ± 0.0032.
Consider CGCCCGGTAA, for which the switch fluorescence ratio amounted to 1.13 ± 0.043.
For the sequence AAGGGGGCAT, the switch fluorescence ratio was determined as 0.979 ± 0.033.
As to ATAGATAGGG, the switch fluorescence ratio is 0.969 ± 0.021.
On to AAGTAAGGGC, for which the switch fluorescence ratio worked out at 1.02 ± 0.031.
